In a protein production outcome set (Wang et al. 2014) one finds protein production data, which are given here for 21 sequences.

This series is described as follows: label from the status in PepcDB records.
Turning to “MSHCSCHDKPQHSLLPAAYRILSITRHTPLEWNFRVAVDFPAHWGQFVEVSLPRVGEAPISVSDYGDGWIDLLIRNLGKVTSALFTLKEGDNVWLRGCYGNGYPVDTLRHKPLLVVAGGTGVAPVKGLMRYFVENPQEIGQLDMILGYKNRDCVLYKEEMATWRGKHNLVLTLDEGEADDRYQIGRVTDRLADMTLSDIDTMQAIVVGPPIMITFTVKMLLQKGLKPEQIWVDYERRMACSVGKCGHCRMGEVYVCTDGPIFNYAVAQRFAD”, the protein production entry is given as “failed”. “MSRPRLELGTWGKITRTEVAEGKHRARARFRDFTGKTRQVEAYGASGAKAERQLLANLRSRVESAGDTISGNTTVSSLGKIWTGNLGKSDEHTEQTIERYESIVEKIIGPALGEYLIMEATVSRVDGFLRALADKTPGRAKTTKSVLKSMFDLAVRHDALRTNPVREVRLPTKRKKPVQALTIDEVGTLREGLRKWQAADGVKGPTRSTELLDVVDLMLGTGMRIGEVLALRWSDVDLGEHPRLTVSGTLVPIKEKGLRRQAHTKTASGFRVLTLPAFVVEVLLRRSVESIPTETNAVFPSGAGTWKWPNNYRRALRAALKEMENTSGITPHVFRKSVATLIDAEATLEAAAAVLGHSGTGVTSAHYVAKAATAPDMSSILDQFGGNRIQKDG”: the protein production result is “failed”. For the sequence “MDLESVKKYLEGDEDEKAKEPMVAKLPHRFLERFVTNGLKVDLIEPGRIVCSMKIPPHLLNAGKFLHGGATATLVDLIGSAVIYTAGASHSGVSVEINVSYLDAAFLDEEIEIESKALRVGKAVAVVSVELRKKTTGKIIAQGRHTKYFAPRSNL”, the protein production entry is “failed”.

Turning to “MDIVSVALQRYSTKAFDPSKKLTAEEADKIKTLLQYSPSSTNSQPWHFIVASTEEGKARVAKSAAGNYTFNERKMLDASHVVVFCAKTAMDDAWLERVVDQEDADGRFATPEAKAANDKGRRFFADMHRVSLKDDHQWMAKQVYLNVGNFLLGVAAMGLDAVPIEGFDAEVLDAEFGLKEKGYTSLVVVPVGHHSVEDFNAGLPKSRLPLETTLTEV”, the protein production entry is “not failed”.

For “MSSCGCAYDILKYQLVIKGNRFNEESEQSMTETTENTVNLPYRNPKLPTEERIADLLGRMTLEEKVGQMMQLDARSGDLDDLIVNKHVGSILHTSPSDLPKAVETVNAKTRLGIPLVIGDDCIHGYSFWPGATIFPEQLGMATTWDSEKVQAAGRATAEEVSATGVHWTFSPVLCIARDTRWGRVGETFGEDPYLIGEMASSIVKGYQGGAKAGEPLAKDAILACAKHFAGYSETQGGRDASEADLSHRKLESWFLPPFERVAKEGCGTFMLGYESIEGVPVTFNKWLLSDKLRGAWNYQGTLITDWDNVGRSVWEQKVKPDYVQAAADAVKSGNDLVMTTPKFYEGAIEAVKTGLLDESLIDAAVARILALKFRLGLFEDPRLPDQKRIDAVIGSEEHQQLNLEVAREAVALLKNDGSLPFNVAGAKRIAVVGPLADDVQTQLGDWAGSSGQINWMPDGHPREMITTVLDGFKQLAPEGCEVVYSRGANIVDLVPDPEGEFYPDGQPRPKIGVSAKIDRALLGEAVENARKSDLIVAVVGDVIQAIGEGCSTATLELLGGQNALIDALSNVARETGKPFVVVLVSSKPQVLPASVIGTNGVIVDETPAEGTSALLWAPSPGMKGGQAIAEIILGETEPSGRLPITFPRHAGQLPVYYNQIRGQHGNRYADLTQNPAFAFGEGLSYTTFEYGDPTITNVPESGIFAETDTVHAEITLTNTGDRKGTEVVQLYIGDIVTSYSWTDRELKAFQRVELEPGKSKTVAFDIPVSDCTIVDSEANRIVEPGEFEVLIGHSSRREHLKRTTFTVA”, the protein production entry is on record as “failed”. Then “MKFSEECRSAAAEWWEGSFVHPFVQGIGDGTLPIDRFKYYVLQDSYYLTHFAKVQSFGAAYAKDLYTTGRMASHAQGTYEAEMALHREFAELLEISEEERKAFKPSPTAYSYTSHMYRSVLSGNFAEILAALLPCYWLYYEVGEKLLHCDPGHPIYQKWIGTYGGDWFRQQVEEQINRFDELAENSTEEVRAKMKENFVISSYYEYQFWGMAYRKEGWSDSAIKEVEECGASRHNG”, with “not failed”; and “MKKLKIVMTGGGSAGHVTPNLALVPKLKELGYEIEYIGTKDGIERSIIEKENIKYNCISSGKLRRYIDIKNFSDPFKVILGIFQSVSILRKKKPNIVFSKGGFVSVPVVIAAHFCRIPVIAHESDITPGLANRIAVPYCTKVCATFPESLNNIKGNKGILTGTPIRDELFKGSKIKGLEICGFTGEKPVLMIIGGSLGSKIIN”, with “failed”.

As for “MVGIYIGSTAAAAGKNLACMALGLVLGRDGRSVGYMKPYGQRPRMVDDRTGDIDAMLVQEVLGQNADPEVVTPVVEPANIRAMSLRGGNALERVGAAYTALARGRDVMLVGGTGSLFHTGRARGLDGLALVRRLDLRVVLVERYHPHPEGGGIDHDAILYAADVLGDRLAGVLLNDLPESYQRDAEEVLVPYLAEHGVRVLGLVPHDPLLHAIRASDLAVRLGGRLVCGGKGSQRLVEGFLIGTMQVENFMSHFRRHANTATIVGGDRTDLQLVALEGQCPCLVLTGNMPPDELIRQRSEQHGAPVIVVREDTYTVARKMEEILNSQKLRDLVTIRRGADIVAGALDRAALLAQTGIPKGENR”, the protein production entry was “failed”. For “MITSLPDNYSPQRQIPIKPDITFVHVRLAHFIAMGAGIGLIRYMPGTAGTIAAFPFYRFLDSIIEPVSLLLIIDVFFIMGIWACAVTGRALNSPDHSGMVWDEIVAFMLVLFFTPDHWTWQLAAFFLFRFFDIVKPAPIGYLDARLKGGLGVMLDDLLAAFYTLLCLAGWKSMVLFESYF” the value was “failed”; for “MKVLIDTNVILDVLLNRASFVQDAIAVLELTCGNIQAYVSASAITDIYYIAYKELRDKIRVKNLIKTLLQIITVAGISDKEIMSAIDSDWADFEDSLQNAVAESHDCSMIITRNISDFNGSNLQIISPKDFIVQFTHLEHHHHHH”, “failed”. Then “MAKKNKPTECPAGEKWAVPYADFLSLLLALFIALYAISAVNKSKVEALKTEFIKIFNYAPKPEAMQPVVVIPPDSGKEEEQMASESSKPASQNTETKATIARKGEGSVLEQIDQGSILKLPSNLLFENATSDAINQDMMLYIERIAKIIQKLPKRVHINVRGFTDDTPLVKTRFKSHYELAANRAYRVMKVLIQYGVNPNQLSFSSYGSTNPIAPNDSLENRMKNNRVEIFFSTDANDLSKIHSILDNEFNPHKQQE”, with “failed”; and “MSEQKEDLFKPVGEAAAEVEDESIAEQNKANDGVKLTGAQDAMGHPVQEIESLCMNCGKNGTTRLLLTSIPYFREIIIMSFDCPHCGFKNCEIQPASQIQEKGSRYVLKVECREDFNRQVIKSETATCKFVELDIEIPAKRGQLTTVEGLLSEMIDDLSQDQEMRKSIDEALYKKIDDFIQKVKSYINCEPNTIPITFILDDPAGNSWIEYKPGEPQHKWSHTQYVRTDEQNVQVGIITRDQLEQRRQEQLKQLANRERNPSESVKVGSANPQFLSDATDIENFNNEVQTFRASCPSCTQECETHMKPVNIPHFKEVIIMSTVCDHCGYKSNEVKTGGAIPDKGRRITLYCDDAADLSRDILKSETCSMVIPELHLDIQEGTLGGRFTTLEGLLRQVYEELESRIFTQTSDSMDEATKARWVEFFAKLKEAIAGKVKFTVIMEDPLAGSYIQNVYAPDPDPNMTIEDYERTKEQNEDLGLSDIKVE”, with “failed”; and “MSVKAGDVFKYERRFTEEEVFEFANITGDKGRHHVEYDENGRLMVHGLLTASIGTKVGEELHYIARELVSEFIRPVFTGDTITCELTLTNVEQMEGYKKVSIESVYRNQHEKTVLVGTSYGIIRGLEHHHHHH”, with “not failed”. Regarding “LTEAVSLMEANIEEPLSTDDIAYYVGVSRRQLERLFKQYLGTVPSKYYLELRLNRARQLLQQTSKSIVQIGLACGFSSGPHFSSTYRNHFNITPREERAQ”, the protein production entry is given as “not failed”. As to “VTLSSGMQALLDDKFVYLAVNQAYAEKLNLTIDQVIGKHPRDIYSKGYFESELKIYSERCLAGEIIKLEKWMRSSSGQAWFIDIEMSPYYQNDGNIYGVMVNARDIT”, the protein production entry is listed as “failed”.

Consider “LNLPYDEHADAWTQVKKALAAGKRTHKPTLLVFGANWCTDCRALDKSLRNQKNTALIAKHFEVVKIDVGNFDRNLELSQAYGDPIQDGIPAVVVVNSDGKVRYTTKGGELANARKMSDQGIYDFFAKITE”, for which the protein production entry is reported as “not failed”.

For the sequence “MKNYQKMSVAQDARVELHDSLALTGAEVSINHLPAGAGVPFVHSHKQNEEIYGILSGKGFITIDGEKIELQAGDWLRIAPDGKRQISAASDSPIGFLCIQVKAGSLEGYTMTDGVVQLEHHHHHH”, the protein production entry was “not failed”. In the case of “MEYNVQDMIFQFIGGLGIFLFGIKYMGDGLQQAAGDRLRDILDRFTTNPLMGVLAGMLVTVLIQSSSGTTALTVGLVSAGFMTLRQAIGVIMGANIGTTVTAFIIGIKIGEYALPVMAVGAILLFFFKNKKVHSVGQVVFGFGMLFFGLELMSAGMKPLRSLESFQELTVSMSDNPILGIVVGTVFTLIVQSSSATIGILQELFGQGAIDLQAALPVLFGDNIGTTITAVLAAIGTSIAARRAALVHVIFNIIGTIIFTILLIPFTSLIQYFQTSLNLNPEMTIAFAHGTFNVTNTIIQFPFIAVLAWIVTKIIRGEDAAIDFKPQHLNPIFIEQSPAIALTEAQKEIIRMAEFSLHGLKEANQFLNTQDKKHANMATQLEGAINNLDKKITEYLVLLSEKPLSPTDSEKHSVLAGVVGDIERVGDHVENLVELVDFQISNRVSLSDEALAELNEMLELTISTLQDSVEALTNFDTELAQTVIAKERKIDQMERVLRKRHVLRLNERSCSGDASIIFVDMVSNLERIGDHAVNIADGVLGEQGKINLKQSL”, the protein production result is recorded as “failed”. Then “MWQQHLAILPILVPLLAALLQLLPWGDRPQPKRRAIGLLSSILTLILTIALLVQVNQDQMIVYALGNWSAPFGIVLMVDKLSALMMLVTAILALPVLIYGCYAEDNLGSHFQALFQFQIMGIMGAFATGDIFNLFVFFEVLLISSYALLMHGGGKFRLRTTLHYVLLNLLGSALFLISVGTLYGVTGTLNMADLATQVQQLSGDQAALAKAGGMMLLIVFGIKAAILPLHFWLPQAYSTTTGVVAALFAIMTKVGVYAIVRVYTLIFGPEANELALIAHDWLWVMGLVTMLAGAIGIIGARDLRLLVAYLVVISIGTLIATYSLNGIATTGAMLFYLIHSTFITGALFLLADLIAFERGKTASRIVSGKKMANHSAYSVMFLIAAIAIIGLPPLSGFVGKLMIMESASPTGASFWLWGAMLGATLIMLISVTRAGSKMLWHTLSGKANEQSAPLGKRAAVVMLLSLSVVMTLFASPIRNYTDDVAEQLYDIDQYPSRVLTKGAE”, with “failed”; and “MLQVPKLTIIMPVYNTAQYLPRAFDALLKQIDKSFKLIVVDDGSTDNSVEVAQNYAYRFPYFKLIKKKNGGPSDARNVGMQYIDTPYVTFHDGDDWVDPGYTSFFIRAFEEHPDVNLVSCGYWMDYPDKKSRVVGRPEGGFLTRGETYLKLTNVFGSPMKGYSWNKAYKTAIIKKFHLQFDRDISLLEDQIFNVKYISVAKGVYYTQRPYYHYWQRKGSIIHQPNVKKVADNFRGNYRVWRRIIKTMLKDHEDEKMRKKLDRSPLRDSDVQ”, with “failed”. As to “MDHQLSQHDIFISQDGQLQLTVAVDTETVWLTQAEICVLFDRERSVITKHINNVFKEGELERDSVCAIFARTADDGKTYQTQYFNLDVIISVGYRVKSKRGVQFRQWATNTLKQHLLQGYTLNQQRLVQRGIEFNQALALLSKTLTNQALINPDGQAVVNVIAEYARSWSLLQGYDEQSLTEITHKQQQMQPLALDEVLAAIAALKTNLIAKGEATDLFAQLRGNGLASSIATIEQGFGGEWFYPNVASRAAHLLYFIIKNHPFADGNKRTGSFLFLWYLQQNQHLLAKPVSEQINDTTLVALALLVAESLPDQKELMIRLIEHFILLKDSELEHHHHHH”, the protein production entry was “not failed”.
